Experimental data as given in a protein production outcome set (Wang et al. 2014).

Experiment: label from the status in PepcDB records

| Sequence | protein production |
| --- | --- |
| MNTNVYENTDSETITPLNKRRILPVFLLVGLYAASTAAVMSVLPFYIREMGGSPLIIGIIIATEAFSQFCAAPLIGHLSDRVGRKRILIVTLAIAAISLLLLANAQCILFILLARTLFGISAGNLSAAAAYIADCTHVRNRRQAIGILTGCIGLGGIVGAGVSGWLSRISLGAPIYAAFILVLGAALVAIWGLKDPSTTSRTTDKIASFSARAILKMPVLRVLIIVMLCHFFAYGMYSSQLPVFLSDTFIWNGLPFGPKALSYLLMADGVINIFVQLFLLGWVSQYFSERKLIILIFALLCTGFLTAGIATTIPVLIFAIVCISIADALAKPTYLAALSVHVSPARQGIVIGTAQALIAIADFISPVLGGFVLGYALYGVWIGIAISVAIIGLVTAMIYLSKSSPLIAKPETE | failed |
| MTARSNSSSSGTSSNKRPRTSGSSPSSKSRRGSGSGPAGRSRKTTSAVSYPTNSARRASETSEERTGSAFRAVGSGLGTLVSATAHGVGSVTRAVARTLHREHDDEEFDAVDDAFSSEETVVTNRKRKPSRMTKTKKNLFDDDIEDQHDDFDEEAGLGRFTLALSDESVDSIGLILIALAFIVGASVWFDIAGPIGAAIAAGVHFVIGAGALILPLALVAIAIALMLGKLPEPDHQPRLVLGTSVIAISMLGLIHLFAGDPADWQGRTHAGGIVGAYSGGMIARGFSVYLAIPLLVLVIIYGALRINNVTVKELFEAIQDTVQGLRDDSEDEDDPLYADADAEIEARSRGEKLHRPQPRREKPRPAPERRRMSAPLVDDVDEDVVSRPLFDDPSTAQSQKSSVETQRAARDVSETDEFPAVDEPTVVVPRKPSAPRMSLPQTPVTDVEAAADVVAAGRKAVQDAVKARESHNVGAALAPSTPAQPYEAPESHYAVPSTQLLIPGKEAKTHSEANDRMIEAISDVFAEFKVDAHVTGFSRGPTVTRYEVELGPGVKVSKITNLQSNLAYAVATDNVRLLTPIPGKSAVGIEVPNTDREMVRLGDVLNSESVHSDHDPMLIGLGKDIEGDFVAHSVQKMPHLLVAGSTGSGKSAFVNSLLVSLLTRATPEDVRLILVDPKMVELTPYEGIPHLITPIITQPKKAAAALQWLVEEMEQRYMDMKSTRVRHIKDFNRKVKSGEIQAPLGSQREYHPYPYIVCVVDELADLMMTAPKEIEDSIVRITQKARAAGIHLVLATQRPSVDVVTGLIKTNVPSRLAFATSSLTDSRVILDQAGAEKLIGMGDGLFIPQGGRPQRIQGAFVTDEEIQAVVDAAKAQGEPNYTEGVTEDKAAEAKKDIDADIGNDLEDLLQAVELVVTAQLGSTSMLQRKLRIGFAKAGRLMDLMETRGIVGPSEGSKAREVLVKPEELETTLWMIKGAKPEDAPKEDDWQSADSGVSDASDPSHGERAAYNPSSNAF | failed |
| MEVPMDCPGCENKVRKALEKMNGVHDVQIDIKQQRVTVTGSAEQKKVLKVARNVTKRDICLWSYPYHPESNGYNDRYFKKKFRKRINMSVNGEKVSSYNYHKHGYHGHEHGYYQERPYSGLINPSASSMFSEENPHFCSIM | failed |
| MTARELLKIVVVGHVDHGKSTIIGRLLYDTKSVPEAAIERVKRISKEKGRPFEYAYLLDALEEEQKQGITIDTTQIKFSTPKRDYLIIDAPGHKEFLKNMVSGAANAEAALLVIDAAEGVQEQSKRHAYILSLLGIQKVYVIVNKMDMIEFSEKKFKEIKYEISTFLSKLNVYPQKYIPVSGFLGENIARKSDKMPWYKGETLLQALDLFEKDKELEDRPLRFPIQDVYKFDHRRVIAGRLESGRLKVGDEIKILPEGKVSKVKSIEFWPENNKKDEVVAGMSIGITIEDEFFNKRGEVIVHKNDNTLYVSDTFRANLFWLGKRNLVKNKTYKLKLVTQETECEIVSIDKVIDATTLETVENALEVRTNDVAEVTIKTREKICFDEFKVNPTTGRFVLVDEYDVSGGGIISGLANLKEEATKFVKDDKEMIVHCFDEYYYSLSEGLIRKHSKYKRTFKVGDAVPIEGETYSYPESFDVIDINGKLVAKVRKGQLSDLVDIDQYIYSELPIITADGFYLKVNSIDEFKDFKNELVQLQKNDNFHLAMFANKWYDISANRSFKFTV | failed |
| MLNNFLNLELLNISLSYPFLFLITTAIVLLLCSGFWKFHRSFYIGISSLSLIVSAFLILNNANAQGLEAKAFLATLNNDIVSFYASLVILCFSFLYLLMQKEENQGEFYALFLFMIASLLLMVSSSNLVLIFIGLESSSLALYTLIAMRGSDNAISSAIKYFSIAAVGAGFFVMAVAFIYLKTGTLDLSANLALKNEFQKDPMLLGAGVMIFVLCAIKLSLAPFHFWLKDVYYAAHTNLVAFISVVPKVAMLVVVIRLFDFLNNTGFEYIIIVLAIFSMLIGAFAALSQNNIKKMFAYSSVVHSSLVLIACIPLLKEQNFDGILLAIFGYWTLFAFANYAVFMILSNYENNSYESLNGLLVKKPLIAFCLSISVLSLAGIPPFGVFWGKFMILNTVILNGYWYLALFVALSSVIMLYAYLKILIHVLFMKNDRVYNIKFSFIQNFILAFCVCVSIFAILLML | failed |
| MIKGEQKRYSEMTKEELQQEIAMLTEKARKAEQMGMVNEYAVYERKIAMAKAYMLNPADFHPGEIYEIEGAPGEYFKVRYLKGVFAWGWRLKGNGEEEALPISLLRKPNLPQS | not failed |
| MLEIMLMVCIGALAAVMANLGIAVFNDGIRPIVPENLEGRMTRKELGVTAFAMSFGLVIGFGIPISIAGSIILIHSILLGSDIIGLALDRGKVKTTIAAIIGGLYGAGIYMGLQVVVDLFTMLPLNFVDAFNKVGDPVVVSFMVFPAIAIALQFGVKKGIIAFAIAAFARQLIVFTNGAELIKIGSTPVVLSPEGIALVVGMFLLIFFAMREKSEETNLSTLATLFTDRVARIKKHRWILMLSGGLVAAATNLLLIAGDPISLNLLAEGKMSEGGIAALAKAIGFVPLIASTAIATGVYGPIGFTFVFAAGIFAPNLGIALLIGALIIFLEIQLLTKLATFLDRYPGIRASGENIRTAMSRVLEVALLIGGANAADAIVPGFGFFAIAGFYLINEIAGRPIVRMAIGPVGAIIVGIVGNLLVLLGLYTP | failed |
| MFDRLKTMLIKEAIQILRDPKMRFIILVIPAIQITLFGYAVNTDVKHIATAVYDLDNSALSRDLVARLERSGYFDIVQRVQRGDELRDLLDRGKVRAAVQINRGFEENIRAGRTATLPIIVDGTDPSTARIVVSYSVTIAERFSDQILTDYSLRKSGRTTGGNGIELESRAWFNANLESRNYYVPGVIASMVLITTMMLSSMAVVREKEIGTMEQIIVTPIQRWEFIVGKLVPFAIVGYINVTIVTCIALFWFKIPLRGSILLLIGSTALFLMSTLGFGLLISTISRTQQQAMMSSFMFTFPAMLLSGFAFPIENMPTSIQYATYLNPLRYYLVIVRGIFLKGIGLGILWPQLAALALLGSVVLLFAVGRFKKSVG | failed |
| MKIEERKQYVKIEVQEGDTLWELADRIKGGKTADKHKFIEWVADKNNLPTSVIKPGDVLILPVAKQHSDQYQLAVVELEHHHHHH | not failed |
| MGVFLVLLGGIFWAISGVLAEYLFKNNYSVDWVCFYRLLSTGLILIFLSFKTQKILVFANLKESLSICIFGFFGLLLTQFGYFKAIYYTDAGTATMIQYCAPLIIMLYLCFKNKKFPKLIEIFALILIIFALFLLATKGDIEAVVLNYWGIFWAVIGAFGVAFYSLSAREVILKYGLFWIMGWASLFASFVFLLILQFDKGLIHYAFNLKAFFSMGGIVFIGTIGAFCLYLKGVEYIGALRASMIASIEPVAAALMSFLFLKTRYSLLDIFAFVLIILSVILNAKKTKAS | failed |
| MATCIWLRSCGARRLGSTFPGCRLRPRAGGLVPASGPAPGPAQLRCYAGRLAGLSAALLRTDSFVGGRWLPAAATFPVQDPASGAALGMVADCGVREARAAVRAAYEAFCRWREVSAKERSSLLRKWYNLMIQNKDDLARIITAESGKPLKEAHGEILYSAFFLEWFSEEARRVYGDIIHTPAKDRRALVLKQPIGVAAVITPWNFPSAMITRKVGAALAAGCTVVVKPAEDTPFSALALAELASQAGIPSGVYNVIPCSRKNAKEVGEAICTDPLVSKISFTGSTTTGKILLHHAANSVKRVSMELGGLAPFIVFDSANVDQAVAGAMASKFRNTGQTCVCSNQFLVQRGIHDAFVKAFAEAMKKNLRVGNGFEEGTTQGPLINEKAVEKVEKQVNDAVSKGATVVTGGKRHQLGKNFFEPTLLCNVTQDMLCTHEETFGPLAPVIKFDTEEEAIAIANAADVGLAGYFYSQDPAQIWRVAEQLEVGMVGVNEGLISSVECPFGGVKQSGLGREGSKYGIDEYLELKYVCYGGL | failed |
